Experiments:
[1] = biological target: untagged recombinant full-length human α-synuclein (human, UniProt P37840 1-140); test: dot blot
Description: (§1) 45 ng/spot was applied to the nitrocellulose. Total Tau was determined using Tau12. […] Each point represents a minimum of three independent measurements. […] Scale bar is 200 nm. […] Monomeric and dimeric Tau were isolated from the same aggregation reaction. Also included is an electroeluted monomeric sample that was never exposed to AA (−AA). 12 ng/spot was applied to the nitrocellulose.
(§2) For dot blots, samples were spotted directly onto nitrocellulose membranes (44). Both Western and dot blot membranes were blocked with 5% nonfat dry milk in TBS, pH 7.4, and incubated in primary antibodies overnight at 4° C. For dot blots, 0.05% Triton X-100 was added to the TBS solution. The Tau12 (45), TauS (46), Tau7 (47), MOAB-2 (a mouse monoclonal antibody (IgG1) produced in the Binder laboratory what recognizes Aβ40 and −42), and TOC1 mouse monoclonal antibodies were used at 0.0067, 0.01, 0.04, 0.05, and 0.1 μg/ml, respectively. The mouse monoclonal anti-α-synuclein (Chemicon; MAB5320) and rabbit monoclonal anti-β-actin (Cell Signaling Technology; clone 13E5) antibodies were diluted to 1:2000 and 1:1000, respectively. The rabbit polyclonal antibodies R1 (48) and His-probe (Santa Cruz Biotechnology; clone H-15) were used at 0.0075 and 0.5 μg/ml, respectively. […]

[2] = biological target: T1, recombinant human Aβ42 (rPeptide) (human, UniProt P05067 672-713); test: dot blot
T1 construct: domain: Aβ42; Tested in the monomeric (unaggregated), oligomeric and filamentous states; also called Aβ Olig; Aβ Fil
Description: as §1, §2

[3] = biological target: T2, Tau MTBR construct consisting of residues 244-372 of hTau40 (human, UniProt P10636 561-689); test: dot blot of AA-assembled construct
T2 construct: Expressed in E. coli from pET-17b; Assembled with AA before the dot blot; not shown: poly-His tag C-terminal to residue 372

[4] = biological target: tau deletion construct Δ209-228 (hTau40), aggregated (human, UniProt P10636 1-758); test: aggregated deletion construct incubated with the antibody
Description: (§3) Two overlapping tau deletion constructs (Δ209-228 and Δ221-238) were aggregated and incubated with the TOC1 antibody or with the Tau7 antibody. Both were positive for Tau7 which recognizes the last 11 amino acids of tau, but negative for TOC1.

[5] = biological target: tau deletion construct Δ221-238 (hTau40), aggregated (human, UniProt P10636 1-758); test: as above
Description: as §3

[6] = biological target: T3, Tau oligomers (hTau40 aggregates <50 nm in length; sucrose gradient Fraction 3) (human, UniProt P10636 1-758); test: immunogold EM, normalised to poly-His tag labeling of the same preparation
T3 construct: Prefibrillar aggregates of recombinant poly-His tagged hTau40 made with arachidonic acid; The number of chains is not defined; also called oligomeric structures; oligomer fraction
T3 sequence (P10636 other isoform, or with tags, fused parts or gaps limits assumed): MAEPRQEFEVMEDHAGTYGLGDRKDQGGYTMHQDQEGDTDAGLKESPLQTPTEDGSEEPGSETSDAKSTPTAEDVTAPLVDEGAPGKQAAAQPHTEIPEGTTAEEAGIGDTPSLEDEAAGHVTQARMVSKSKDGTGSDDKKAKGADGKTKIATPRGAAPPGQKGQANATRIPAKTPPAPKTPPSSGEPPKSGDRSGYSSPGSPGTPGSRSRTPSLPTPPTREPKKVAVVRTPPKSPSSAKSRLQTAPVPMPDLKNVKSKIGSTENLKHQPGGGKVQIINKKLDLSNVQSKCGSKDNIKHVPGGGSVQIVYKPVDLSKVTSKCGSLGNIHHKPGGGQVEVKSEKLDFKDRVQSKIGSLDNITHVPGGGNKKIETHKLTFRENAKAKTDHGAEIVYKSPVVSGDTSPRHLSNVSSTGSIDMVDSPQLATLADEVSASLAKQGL

T2 sequence (P10636 other isoform, or with tags, fused parts or gaps): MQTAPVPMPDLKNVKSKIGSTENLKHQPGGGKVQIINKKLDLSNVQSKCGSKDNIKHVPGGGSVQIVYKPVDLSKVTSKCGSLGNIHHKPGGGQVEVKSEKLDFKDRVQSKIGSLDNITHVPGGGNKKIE
tau deletion construct Δ209-228 (hTau40), aggregated, sequence (P10636 other isoform, or with tags, fused parts or gaps mutant): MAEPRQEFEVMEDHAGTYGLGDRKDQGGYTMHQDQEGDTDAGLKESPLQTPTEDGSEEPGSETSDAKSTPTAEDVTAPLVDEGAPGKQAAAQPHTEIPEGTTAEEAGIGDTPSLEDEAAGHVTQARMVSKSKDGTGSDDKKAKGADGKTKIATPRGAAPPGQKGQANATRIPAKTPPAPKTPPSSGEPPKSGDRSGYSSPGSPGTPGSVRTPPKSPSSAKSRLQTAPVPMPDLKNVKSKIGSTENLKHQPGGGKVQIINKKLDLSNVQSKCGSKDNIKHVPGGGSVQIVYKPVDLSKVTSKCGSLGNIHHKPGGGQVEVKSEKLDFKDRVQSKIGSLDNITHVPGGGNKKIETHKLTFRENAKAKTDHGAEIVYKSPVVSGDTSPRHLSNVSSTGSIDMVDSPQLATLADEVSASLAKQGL
T1 sequence (P05067 672-713 limits assumed): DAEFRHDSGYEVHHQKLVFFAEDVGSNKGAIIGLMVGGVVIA
tau deletion construct Δ221-238 (hTau40), aggregated, sequence (P10636 other isoform, or with tags, fused parts or gaps mutant): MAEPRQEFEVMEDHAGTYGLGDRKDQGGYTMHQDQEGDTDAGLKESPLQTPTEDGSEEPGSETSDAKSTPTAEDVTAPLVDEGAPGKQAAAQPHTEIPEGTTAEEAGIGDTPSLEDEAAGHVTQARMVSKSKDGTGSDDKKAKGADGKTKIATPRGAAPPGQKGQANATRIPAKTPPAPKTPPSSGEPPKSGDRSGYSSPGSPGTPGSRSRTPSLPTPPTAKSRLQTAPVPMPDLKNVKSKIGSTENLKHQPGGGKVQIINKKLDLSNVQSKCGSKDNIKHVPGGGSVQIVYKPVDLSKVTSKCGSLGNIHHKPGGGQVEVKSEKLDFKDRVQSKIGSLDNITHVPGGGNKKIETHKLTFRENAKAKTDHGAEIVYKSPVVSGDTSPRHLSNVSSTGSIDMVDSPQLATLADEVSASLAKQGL

B1: Tau oligomeric complex-1 (TOC1) monoclonal antibody (antibody)
heavy: QVQLQQPGAELVMPGASVKLSCKASGYTFTSYWMHWVKQRPGQGLEWIGEIDPSDSYTNYNQKFKGKSTLTVDKSSSTAYMQLSSLTSEDSAVYYCARSGDGSSPWYFDVWGTGTTVTVSSESQSFPNVFPLVSCESPLSDKNLVAMGCLARDFLPSTISFTWNYQNNTEVIQGIRTFPTLRTGGKYLATSQVLLSPKSILEGSDEYLVCKIHYGGKNKDLHVPIPAVAEMNPNVNVFVPPRDGFSGPAPRKSKLICEATNFTPKPITVSWLKDGKLVESGFTTDPVTIENKGSTPQTYKVISTLTISEIDWLNLNVYTCRVDHRGLTFLKNVSSTCAASPSTDILTFTIPPSFADIFLSKSANLTCLVSNLATYETLNISWASQSGEPLETKIKIMESHPNGTFSAKGVASVCVEDWNNRKEFVCTVTHRDLPSPQKKFISKPNEVHKHPPAVYLLPPAREQLNLRESATVTCLVKGFSPADISVQWLQRGQLLPQEKYVTSAPMPEPGAPGFYFTHSILTVTEEEWNSGETYTCVVGHEALPHLVTERTVDKSTGKPTLYNVSLIMSDTGGTCY
light: DVLMTQTPLSLPVSLGDQASISCRSSQSIVHSNGNTYLEWYLQKPGQSPKLLIYKVSNRFSGVPDRFSGSGSGTDFTLKISRVEAEDLGVYYCFQGSHVPRTFGGGTKLEIKRADAAPTVSIFPPSSEQLTSGGASVVCFLNNFYPKDINVKWKIDGSERQNGVLNSWTDQDSKDSTYSMSSTLTLTKDEYERHNSYTCEATHKTSTSPIVKSFNRNEC
notes: Mouse monoclonal of the IgM isotype, purified from hybridoma culture; Raised in Tau null mice against electroeluted B4M cross-linked Tau dimers and boosted with cross-linked oligomers; The light chain protein print marks the leader with a dash; For the heavy chain only the DNA print does (57 nt)
> 7 fold: fold preference of immunogold labeling, oligomers over filaments (TOC1:His tag labeling) [6]
no binding: binding result [1] | binding result [2] | binding result [3] | binding result [4] | binding result [5]

Reference: patent US20120301473A1 (NORTHWESTERN UNIVERSITY, published 2012)
